Data from patent US20210147504A1 (Bayer, published 2021).
Where a chain is given by its changes, count along the chain named. Blank lines part the entries; values can stand above or below the binder they belong to.

Assays:
Experiment in all cases: cell-based or functional assay
[1] = biological target: T1, rat CNP receptor (NPR-B) (rat, UniProt P16067 17-1047)
T1 sequence (looked up): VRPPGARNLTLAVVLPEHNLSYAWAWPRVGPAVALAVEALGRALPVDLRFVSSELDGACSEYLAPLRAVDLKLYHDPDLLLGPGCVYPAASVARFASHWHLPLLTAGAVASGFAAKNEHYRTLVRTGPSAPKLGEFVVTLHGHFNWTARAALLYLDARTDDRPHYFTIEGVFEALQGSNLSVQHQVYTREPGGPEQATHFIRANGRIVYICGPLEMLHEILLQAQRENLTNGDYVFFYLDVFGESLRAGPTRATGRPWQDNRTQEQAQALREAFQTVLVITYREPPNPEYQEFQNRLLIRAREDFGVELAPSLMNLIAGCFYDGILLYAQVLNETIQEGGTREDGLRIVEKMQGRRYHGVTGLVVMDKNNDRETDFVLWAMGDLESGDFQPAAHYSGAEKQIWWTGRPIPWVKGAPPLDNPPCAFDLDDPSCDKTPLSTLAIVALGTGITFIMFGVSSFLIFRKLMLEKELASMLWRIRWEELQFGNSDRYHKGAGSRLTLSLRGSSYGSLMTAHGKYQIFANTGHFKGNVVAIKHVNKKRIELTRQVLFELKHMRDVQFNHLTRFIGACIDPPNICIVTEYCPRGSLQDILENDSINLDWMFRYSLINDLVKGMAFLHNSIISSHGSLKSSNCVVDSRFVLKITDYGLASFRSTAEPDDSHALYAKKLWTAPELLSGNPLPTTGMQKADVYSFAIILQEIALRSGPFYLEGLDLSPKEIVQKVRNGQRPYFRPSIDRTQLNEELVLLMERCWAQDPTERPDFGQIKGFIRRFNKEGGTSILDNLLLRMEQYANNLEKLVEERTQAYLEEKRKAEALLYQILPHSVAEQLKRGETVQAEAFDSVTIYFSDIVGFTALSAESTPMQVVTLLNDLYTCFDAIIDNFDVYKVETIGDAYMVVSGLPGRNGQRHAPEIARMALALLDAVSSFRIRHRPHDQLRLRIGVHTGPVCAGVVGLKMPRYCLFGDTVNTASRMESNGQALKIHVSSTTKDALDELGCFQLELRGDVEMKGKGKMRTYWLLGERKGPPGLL

[2] = biological target: T2, human NPRA (hNPRA) (human, UniProt P16066 33-1061)
T2 sequence (looked up): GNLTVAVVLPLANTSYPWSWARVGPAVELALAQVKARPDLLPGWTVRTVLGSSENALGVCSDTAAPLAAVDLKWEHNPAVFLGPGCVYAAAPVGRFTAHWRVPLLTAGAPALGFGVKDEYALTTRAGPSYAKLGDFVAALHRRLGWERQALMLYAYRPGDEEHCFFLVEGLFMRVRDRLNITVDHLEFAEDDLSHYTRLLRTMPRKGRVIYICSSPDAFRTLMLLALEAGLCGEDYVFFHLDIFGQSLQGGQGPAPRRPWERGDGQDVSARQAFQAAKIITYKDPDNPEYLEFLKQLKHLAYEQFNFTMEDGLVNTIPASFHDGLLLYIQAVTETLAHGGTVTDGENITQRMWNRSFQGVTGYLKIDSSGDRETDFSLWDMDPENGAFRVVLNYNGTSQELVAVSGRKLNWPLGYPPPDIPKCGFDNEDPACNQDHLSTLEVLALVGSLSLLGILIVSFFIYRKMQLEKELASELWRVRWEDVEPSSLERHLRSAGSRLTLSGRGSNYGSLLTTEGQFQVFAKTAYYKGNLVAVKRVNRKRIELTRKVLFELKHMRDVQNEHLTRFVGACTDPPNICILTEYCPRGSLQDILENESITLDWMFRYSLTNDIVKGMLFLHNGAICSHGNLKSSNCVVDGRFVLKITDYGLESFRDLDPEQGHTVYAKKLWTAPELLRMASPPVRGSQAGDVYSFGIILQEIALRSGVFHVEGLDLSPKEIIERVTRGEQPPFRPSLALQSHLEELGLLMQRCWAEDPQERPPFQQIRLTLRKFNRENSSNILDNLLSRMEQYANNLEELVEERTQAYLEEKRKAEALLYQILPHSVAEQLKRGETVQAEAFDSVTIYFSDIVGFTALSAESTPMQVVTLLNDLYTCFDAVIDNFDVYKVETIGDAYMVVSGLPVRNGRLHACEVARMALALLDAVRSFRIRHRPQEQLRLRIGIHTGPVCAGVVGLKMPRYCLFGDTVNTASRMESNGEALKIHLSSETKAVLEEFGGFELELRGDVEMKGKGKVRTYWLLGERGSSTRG

[3] = biological target: T3, rat ANP receptor (NPR-A) (rat, UniProt P18910 29-1057)
T3 sequence (looked up): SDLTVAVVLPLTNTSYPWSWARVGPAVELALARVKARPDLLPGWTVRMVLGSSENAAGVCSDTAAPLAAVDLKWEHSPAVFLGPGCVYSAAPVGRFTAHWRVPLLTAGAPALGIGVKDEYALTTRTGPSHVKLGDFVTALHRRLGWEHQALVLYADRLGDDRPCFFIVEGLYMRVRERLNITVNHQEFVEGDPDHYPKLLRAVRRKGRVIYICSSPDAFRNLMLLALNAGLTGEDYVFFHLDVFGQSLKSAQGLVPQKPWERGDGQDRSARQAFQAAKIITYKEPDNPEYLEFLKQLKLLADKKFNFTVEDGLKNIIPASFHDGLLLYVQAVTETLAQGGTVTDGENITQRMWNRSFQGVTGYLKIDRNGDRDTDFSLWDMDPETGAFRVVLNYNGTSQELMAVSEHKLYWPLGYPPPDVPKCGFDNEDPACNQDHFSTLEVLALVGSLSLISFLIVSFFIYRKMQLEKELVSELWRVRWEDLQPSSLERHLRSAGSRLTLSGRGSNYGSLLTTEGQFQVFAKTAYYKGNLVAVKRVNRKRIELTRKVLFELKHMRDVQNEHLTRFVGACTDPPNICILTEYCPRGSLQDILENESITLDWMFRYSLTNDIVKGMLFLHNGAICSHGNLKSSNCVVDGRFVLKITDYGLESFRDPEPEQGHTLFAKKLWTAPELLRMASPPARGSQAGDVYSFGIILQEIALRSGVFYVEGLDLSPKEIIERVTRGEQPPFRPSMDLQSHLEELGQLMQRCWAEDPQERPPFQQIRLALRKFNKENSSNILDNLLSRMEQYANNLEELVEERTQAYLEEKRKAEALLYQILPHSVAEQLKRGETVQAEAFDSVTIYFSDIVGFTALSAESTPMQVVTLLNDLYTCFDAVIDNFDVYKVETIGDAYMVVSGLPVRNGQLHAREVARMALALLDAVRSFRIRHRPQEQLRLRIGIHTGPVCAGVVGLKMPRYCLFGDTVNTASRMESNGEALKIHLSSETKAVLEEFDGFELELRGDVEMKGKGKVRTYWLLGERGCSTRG

B1: TPP-9465 (antibody)
heavy: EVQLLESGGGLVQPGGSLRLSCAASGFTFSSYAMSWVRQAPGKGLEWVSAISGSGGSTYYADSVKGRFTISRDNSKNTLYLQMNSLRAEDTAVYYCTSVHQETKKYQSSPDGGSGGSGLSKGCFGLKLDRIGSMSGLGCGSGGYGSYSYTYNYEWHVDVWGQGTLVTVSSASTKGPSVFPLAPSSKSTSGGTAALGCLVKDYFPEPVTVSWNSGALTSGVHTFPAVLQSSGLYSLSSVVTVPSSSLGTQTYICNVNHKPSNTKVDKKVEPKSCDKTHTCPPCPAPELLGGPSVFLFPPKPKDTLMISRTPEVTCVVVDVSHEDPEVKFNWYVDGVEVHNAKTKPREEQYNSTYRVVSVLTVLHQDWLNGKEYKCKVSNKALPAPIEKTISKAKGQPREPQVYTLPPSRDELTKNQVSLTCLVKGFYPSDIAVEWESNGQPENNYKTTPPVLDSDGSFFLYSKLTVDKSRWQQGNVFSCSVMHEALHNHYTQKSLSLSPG
light: QSVLTQPPSVSGAPGQRVTISCTGSSSNIGAGYDVHWYQQLPGTAPKLLIYGNSNRPSGVPDRFSGSKSGTSASLAITGLQAEDEADYYCQSYDSSLSGVVFGGGTKLTVLGQPKAAPSVTLFPPSSEELQANKATLVCLISDFYPGAVTVAWKADSSPVKAGVETTTPSKQSNNKYAASSYLSLTPEQWKSHRSYSCQVTHEGSTVEKTVAPTECS
EC50, luminescence signal of rat NPR-B cGMP reporter cell line [1]: 5.2 nM

B4: TPP-5661 (antibody)
heavy: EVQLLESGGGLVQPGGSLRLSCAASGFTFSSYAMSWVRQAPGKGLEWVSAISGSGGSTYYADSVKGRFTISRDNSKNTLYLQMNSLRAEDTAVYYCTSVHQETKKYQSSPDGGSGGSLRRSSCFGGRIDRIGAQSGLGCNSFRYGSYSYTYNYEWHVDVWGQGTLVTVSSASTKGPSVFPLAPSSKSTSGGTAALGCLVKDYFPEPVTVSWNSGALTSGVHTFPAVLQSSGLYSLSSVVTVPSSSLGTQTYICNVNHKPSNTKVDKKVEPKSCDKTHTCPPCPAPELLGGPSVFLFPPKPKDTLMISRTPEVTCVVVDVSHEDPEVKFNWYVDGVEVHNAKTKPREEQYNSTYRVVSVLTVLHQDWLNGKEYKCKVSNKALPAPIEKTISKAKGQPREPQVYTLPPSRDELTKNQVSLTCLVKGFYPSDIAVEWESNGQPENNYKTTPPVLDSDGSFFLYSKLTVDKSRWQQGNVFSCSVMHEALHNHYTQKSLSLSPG
light: B1 light
log EC50, cGMP quantification assay, isolated compound sample (ics) on stable hNPRA-CHO k1 cells [2]: -8.8 log EC50
log EC50, cGMP quantification assay, purified compound sample (pcs) on stable hNPRA-CHO k1 cells [2]: -9.2 log EC50
log EC50, cGMP quantification assay, purified compound sample (pcs) on transient hNPRA-HEK293 cells [2]: -9 log EC50
EC50, fluorescence signal of rat NPR-A cGMP reporter CHO cell line (GCaMP6/CNGA2) [3]: 17 nM

Other lines, results leading:

EC50, luminescence signal of rat NPR-B cGMP reporter cell line [1]: 10 nM
B2: TPP-12897 (antibody)
heavy: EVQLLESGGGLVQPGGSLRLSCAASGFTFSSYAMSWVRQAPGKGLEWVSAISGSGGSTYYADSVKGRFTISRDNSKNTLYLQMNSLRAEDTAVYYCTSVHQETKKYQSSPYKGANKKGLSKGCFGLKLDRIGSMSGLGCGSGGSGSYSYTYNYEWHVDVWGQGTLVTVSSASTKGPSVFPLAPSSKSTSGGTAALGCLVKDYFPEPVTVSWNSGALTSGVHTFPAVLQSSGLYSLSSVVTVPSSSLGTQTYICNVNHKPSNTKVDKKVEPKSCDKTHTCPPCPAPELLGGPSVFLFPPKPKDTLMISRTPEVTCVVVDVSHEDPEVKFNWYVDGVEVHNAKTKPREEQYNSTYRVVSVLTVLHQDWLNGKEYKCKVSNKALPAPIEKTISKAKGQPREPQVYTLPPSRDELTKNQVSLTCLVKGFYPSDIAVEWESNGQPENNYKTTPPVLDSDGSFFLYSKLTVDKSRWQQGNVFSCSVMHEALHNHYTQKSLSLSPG
light: B1 light with S98D

EC50, luminescence signal of rat NPR-B cGMP reporter cell line [1]: 4.1 nM
B3: TPP-12377 (antibody)
heavy: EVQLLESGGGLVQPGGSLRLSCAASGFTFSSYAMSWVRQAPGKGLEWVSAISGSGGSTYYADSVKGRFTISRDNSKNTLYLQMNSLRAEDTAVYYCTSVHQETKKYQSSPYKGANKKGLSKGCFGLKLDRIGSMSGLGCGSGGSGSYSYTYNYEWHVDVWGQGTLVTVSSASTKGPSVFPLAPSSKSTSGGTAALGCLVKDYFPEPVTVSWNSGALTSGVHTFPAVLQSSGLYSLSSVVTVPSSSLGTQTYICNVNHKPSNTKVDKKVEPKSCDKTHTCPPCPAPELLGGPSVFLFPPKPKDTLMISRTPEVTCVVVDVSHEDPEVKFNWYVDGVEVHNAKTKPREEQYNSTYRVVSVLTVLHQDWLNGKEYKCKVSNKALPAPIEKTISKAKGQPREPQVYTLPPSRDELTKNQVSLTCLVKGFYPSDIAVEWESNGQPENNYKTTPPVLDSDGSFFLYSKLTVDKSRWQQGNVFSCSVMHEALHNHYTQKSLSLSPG
light: B1 light
